The supplement of paper PMC7877785
± gives the uncertainty stated by the source.

Test: self-splicing fitness, log relative to wild type (ln ratio); higher = more splicing; Tetrahymena group I intron in knt gene, E. coli kanamycin selection, DiMSum; sequences stand for … in CUCUCU…GGAGGGAAAAGUUAUCAGGCAUGCACCUGGUAGCUAGUCUUUAAACCAAUAGAUUGCAUCGGUUUAAAAGGCAAGACCGUCAAAUUGCGGGAAAGGGGUCAACAGCCGUUCAGUACCAAGUCUCAGGGGAAACUUUGAGAUGGCCUUGCAAAGGGUAUGGUAAUAAGCUGACGGACAUGGUCCUAACCACGCAGCCAAGUCCUAAGUCAACAGAUCUUCUGUUGAUAUGGAUGCAGUUCACAGACUAAAUGUCGGUCGGGGAAGAUGUAUUCUUCUCAUAAGAUAUAGUCGGACCUCUCCUUAAUGGGAGCUAGCGGAUGAAGUGAUGCAACACUGGAGCCGCUGGGAACUAAUUUGUAUGCGAAAGUAUAUUGAUUAGUUUUGGAGUACUCGUGGUCG
In short: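 A randomised library covering all eight P1ex-region intron nucleotides was built with the intron in the knt kanamycin-resistance gene on pET-22b(+) and held in E. coli BL21(DE3). Cells were grown overnight at 37°C or 30°C on LB agar, with or without 25 μg/mL kanamycin, plus 100 μg/mL carbenicillin, 50 μM IPTG and 0.2% rhamnose, and pooled colonies were amplicon-sequenced on an Illumina HiSeq 2500. DiMSum fitness is the error-weighted combination of wild-type-normalised replicate fold changes, kanamycin versus none.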

| Sequence | self-splicing fitness (ln) (30 °C) | self-splicing fitness (ln) (37 °C) |
| --- | --- | --- |
| AUACAGCAAUAUUACGUCUC | -2.98 ± 0.15 | -2.27 ± 0.14 |
| AUACAGCAAUAUUACGUCUU | -0.218 ± 0.059 | 0.336 ± 0.074 |
| AUAGAGCAAUAUUACGACAG | -2.6 ± 0.18 | -0.985 ± 0.2 |
| AUAGAGCAAUAUUACGACAU | 0.275 ± 0.013 | 0.437 ± 0.033 |
| AUAGAGCAAUAUUACGACCU | -1.41 ± 0.23 | -0.988 ± 0.21 |
| AUAGAGCAAUAUUACGACUA | -0.25 ± 0.073 | 0.211 ± 0.088 |
| AUAGAGCAAUAUUACGAGCU | -1.71 ± 0.18 | -1.15 ± 0.16 |
| AUAGAGCAAUAUUACGAGGA | -2.21 ± 0.23 | -2.16 ± 0.27 |
| AUAGAGCAAUAUUACGAUGC | – | -1.36 ± 0.32 |
| AUAGAGCAAUAUUACGCACC | -1.1 ± 0.35 | -1.41 ± 0.44 |
| AUAGAGCAAUAUUACGCAGG | -3.06 ± 0.2 | -1.86 ± 0.23 |
| AUAGAGCAAUAUUACGCGAU | -2.28 ± 0.35 | -2 ± 0.26 |
| AUAGAGCAAUAUUACGCGGU | -4.29 ± 0.35 | -1.64 ± 0.24 |
| AUAGAGCAAUAUUACGCUGG | -1.97 ± 0.14 | -1.62 ± 0.2 |
| AUAGAGCAAUAUUACGCUGU | -0.963 ± 0.11 | 0.0295 ± 0.14 |
| AUAGAGCAAUAUUACGGAAG | -2.48 ± 0.18 | -1.45 ± 0.21 |
| AUAGAGCAAUAUUACGGAUC | -2.96 ± 0.3 | -2.14 ± 0.31 |
| AUAGAGCAAUAUUACGGCAG | -2.15 ± 0.19 | -1.37 ± 0.16 |
| AUAGAGCAAUAUUACGGCGG | -1.71 ± 0.1 | -1.32 ± 0.13 |
| AUAGAGCAAUAUUACGGGAG | -4.25 ± 0.24 | -2.26 ± 0.22 |
| AUAGAGCAAUAUUACGGGUA | -2.89 ± 0.16 | -2.53 ± 0.24 |
| AUAGAGCAAUAUUACGGGUC | -3.75 ± 0.36 | -2.58 ± 0.24 |
| AUAGAGCAAUAUUACGGGUU | -2.43 ± 0.16 | -1.1 ± 0.17 |
| AUAGAGCAAUAUUACGGUGA | -1.49 ± 0.15 | -1.41 ± 0.19 |

| Sequence | self-splicing fitness (ln) (30 °C) | self-splicing fitness (ln) (37 °C) |
| --- | --- | --- |
| AUAGAGCAAUAUUACGUAGC | -3.16 ± 0.29 | -2.27 ± 0.3 |
| AUAGAGCAAUAUUACGUGAA | – | -1.07 ± 0.25 |
| AUAGAGCAAUAUUACGUGAC | -1.62 ± 0.23 | -1.6 ± 0.28 |
| AUAGAGCAAUAUUACGUGAG | -3.77 ± 0.21 | -2.42 ± 0.14 |
| AUAGAGCAAUAUUACGUGCA | -0.67 ± 0.069 | -0.162 ± 0.1 |
| AUAGAGCAAUAUUACGUGCC | -3.44 ± 0.41 | -1.69 ± 0.4 |
| AUAUAGCAAUAUUACGAAGG | -2.83 ± 0.3 | -2.3 ± 0.4 |
| AUAUAGCAAUAUUACGACAG | -2.12 ± 0.19 | -1.51 ± 0.27 |
| AUAUAGCAAUAUUACGAUAA | -1.38 ± 0.31 | -0.229 ± 0.39 |
| AUAUAGCAAUAUUACGCAUA | -2.02 ± 0.26 | -0.946 ± 0.26 |
| AUAUAGCAAUAUUACGCCAA | -1.24 ± 0.45 | -0.89 ± 0.42 |
| AUAUAGCAAUAUUACGCGUG | -1.1 ± 0.12 | -0.528 ± 0.14 |
| AUAUAGCAAUAUUACGGACG | -2.09 ± 0.16 | -1.07 ± 0.19 |
| AUAUAGCAAUAUUACGGGGG | -2.92 ± 0.36 | -0.973 ± 0.28 |
| AUAUAGCAAUAUUACGGUUC | -3.14 ± 0.17 | -2.5 ± 0.24 |
| AUAUAGCAAUAUUACGUACG | -2.49 ± 0.2 | -0.317 ± 0.15 |
| AUAUAGCAAUAUUACGUCGA | -2.07 ± 0.17 | -1.51 ± 0.2 |
| AUAUAGCAAUAUUACGUGAG | -1.81 ± 0.063 | -0.565 ± 0.096 |
| AUAUAGCAAUAUUACGUUCG | -1.57 ± 0.2 | -0.377 ± 0.27 |
| AUAUAGCAAUAUUACGUUUU | -2.98 ± 0.22 | -1.82 ± 0.22 |
| AUCAAGCAAUAUUACGAAAG | -3.67 ± 0.21 | -2.74 ± 0.25 |
| AUCAAGCAAUAUUACGAACU | -0.00363 ± 0.11 | 0.0259 ± 0.11 |
| AUCAAGCAAUAUUACGACGA | -1.26 ± 0.095 | -0.128 ± 0.11 |
| AUCAAGCAAUAUUACGAGCU | -1.24 ± 0.084 | -0.596 ± 0.1 |

| Sequence | self-splicing fitness (ln) (30 °C) | self-splicing fitness (ln) (37 °C) |
| --- | --- | --- |
| AUCAAGCAAUAUUACGAUGG | -3.43 ± 0.26 | -2.67 ± 0.2 |
| AUCAAGCAAUAUUACGCAUU | -2.32 ± 0.12 | -1.69 ± 0.14 |
| AUCAAGCAAUAUUACGCUGC | -2.4 ± 0.41 | -0.934 ± 0.33 |
| AUCAAGCAAUAUUACGGAAU | -1.94 ± 0.071 | -1.03 ± 0.083 |
| AUCAAGCAAUAUUACGGAGG | -2.43 ± 0.096 | -1.36 ± 0.13 |
| AUCAAGCAAUAUUACGGAUG | -2.01 ± 0.079 | -0.664 ± 0.082 |
| AUCAAGCAAUAUUACGGCGA | -0.555 ± 0.077 | 0.246 ± 0.1 |
| AUCAAGCAAUAUUACGGCGG | -1.04 ± 0.066 | -0.788 ± 0.091 |
| AUCAAGCAAUAUUACGGGUG | -1.4 ± 0.088 | -0.416 ± 0.087 |
| AUCAAGCAAUAUUACGGUCU | -1.54 ± 0.11 | -0.196 ± 0.095 |
| AUCAAGCAAUAUUACGUAUA | -2.76 ± 0.23 | -2.31 ± 0.19 |
| AUCCAGCAAUAUUACGACCG | -1.43 ± 0.084 | -0.707 ± 0.12 |
| AUCCAGCAAUAUUACGAGAA | -2.6 ± 0.24 | -1.22 ± 0.22 |
| AUCCAGCAAUAUUACGAUGC | -2.01 ± 0.15 | -0.963 ± 0.17 |
| AUCCAGCAAUAUUACGAUUG | -4.83 ± 0.34 | -3.03 ± 0.24 |
| AUCCAGCAAUAUUACGCAUG | -3.68 ± 0.27 | -0.669 ± 0.13 |
| AUCCAGCAAUAUUACGCCCC | -0.216 ± 0.11 | 0.691 ± 0.19 |
| AUCCAGCAAUAUUACGCGCA | -0.994 ± 0.067 | -0.169 ± 0.081 |
| AUCCAGCAAUAUUACGCUGA | -1.36 ± 0.097 | -1.22 ± 0.13 |
| AUCCAGCAAUAUUACGGAAA | -1.07 ± 0.092 | -1.02 ± 0.084 |
| AUCCAGCAAUAUUACGGAAU | -2.94 ± 0.13 | -1.91 ± 0.17 |
| AUCCAGCAAUAUUACGGAGA | -2.43 ± 0.14 | -0.986 ± 0.12 |
| AUCCAGCAAUAUUACGGAGU | -3.02 ± 0.098 | -1.99 ± 0.11 |
| AUCCAGCAAUAUUACGGCCG | -1.22 ± 0.097 | -0.00834 ± 0.12 |

| Sequence | self-splicing fitness (ln) (30 °C) | self-splicing fitness (ln) (37 °C) |
| --- | --- | --- |
| AUCCAGCAAUAUUACGGCUA | -0.15 ± 0.092 | -0.19 ± 0.08 |
| AUCCAGCAAUAUUACGGGCU | -3.07 ± 0.16 | -2.64 ± 0.17 |
| AUCCAGCAAUAUUACGGUUU | -1.04 ± 0.05 | -0.324 ± 0.068 |
| AUCCAGCAAUAUUACGUAGC | -2.3 ± 0.08 | -1.78 ± 0.11 |
| AUCCAGCAAUAUUACGUGCU | -2.83 ± 0.17 | -2.88 ± 0.31 |
| AUCCAGCAAUAUUACGUUAG | -3.22 ± 0.17 | -3.56 ± 0.35 |
| AUCCAGCAAUAUUACGUUCC | -1.19 ± 0.13 | -0.575 ± 0.25 |
| AUCCAGCAAUAUUACGUUGA | -1.6 ± 0.077 | -0.866 ± 0.087 |
| AUCGAGCAAUAUUACGAAAG | -2.41 ± 0.13 | -0.783 ± 0.14 |
| AUCGAGCAAUAUUACGAACG | -2.49 ± 0.22 | -1.65 ± 0.33 |
| AUCGAGCAAUAUUACGACAA | -2.78 ± 0.18 | -2.2 ± 0.18 |
| AUCGAGCAAUAUUACGACAU | -0.347 ± 0.013 | 0.0643 ± 0.033 |
| AUCGAGCAAUAUUACGAGGC | – | -1.13 ± 0.28 |
| AUCGAGCAAUAUUACGCAGA | -3.09 ± 0.18 | -2.46 ± 0.16 |
| AUCGAGCAAUAUUACGCCAU | -2.34 ± 0.31 | -2.79 ± 0.3 |
| AUCGAGCAAUAUUACGCCUG | -3.45 ± 0.36 | -1.78 ± 0.22 |
| AUCGAGCAAUAUUACGCUAC | – | -1.06 ± 0.29 |
| AUCGAGCAAUAUUACGCUAG | -4.43 ± 0.46 | -2.64 ± 0.33 |
| AUCGAGCAAUAUUACGGACU | -0.916 ± 0.16 | -0.737 ± 0.19 |
| AUCGAGCAAUAUUACGGCAA | -2.19 ± 0.15 | -2.06 ± 0.18 |
| AUCGAGCAAUAUUACGGCUA | -1.22 ± 0.12 | -1.28 ± 0.12 |
| AUCGAGCAAUAUUACGGGUA | -2.85 ± 0.16 | -2.15 ± 0.14 |
| AUCGAGCAAUAUUACGGGUG | -3.28 ± 0.14 | -1.89 ± 0.12 |
| AUCGAGCAAUAUUACGUAGC | -4.41 ± 0.42 | -1.79 ± 0.26 |
